Here are results for 2 proteins from publication doi:10.1101/2020.01.07.897124 (bioRxiv, 2020).

Read-outs that look alike come from different tables or passages of the source.

Data set [1] concerns the molecule itself. The data set can be described thus: cryo-EM structure.
Data set [2] concerns the molecule itself. The data set can be described thus: cryo-EM structure. The source holds these as a separate data set.

B1: human SOAT1-dimer (66-550), purified, tags removed (domain or fragment, UniProt P35610 66-550, looked up)
chain: MKEVGSHFDDFVTNLIEKSASLDNGGCALTTFSVLEGEKNNHRAKDLRAPPEQGKIFIARRSLLDELLEVDHIRTIYHMFIALLILFILSTLVVDYIDEGRLVLEFSLLSYAFGKFPTVVWTWWIMFLSTFSVPYFLFQHWATGYSKSSHPLIRSLFHGFLFMIFQIGVLGFGPTYVVLAYTLPPASRFIIIFEQIRFVMKAHSFVRENVPRVLNSAKEKSSTVPIPTVNQYLYFLFAPTLIYRDSYPRNPTVRWGYVAMKFAQVFGCFFYVYYIFERLCAPLFRNIKQEPFSARVLVLCVFNSILPGVLILFLTFFAFLHCWLNAFAEMLRFGDRMFYKDWWNSTSYSNYYRTWNVVVHDWLYYYAYKDFLWFFSKRFKSAAMLAVFAVSAVVHEYALAVCLSFFYPVLFVLFMFFGMAFNFIVNDSRKKPIWNVLMWTSLFLGNGVLLCFYSQEWYARQHCPLKNPTFLDYVRPRSWTCRYVF
A word on the stoichiometry N: it is a count of units in the complex or per binding partner. Take B1: in data set [1], the “stoichiometry N” value came out at 2.

B2: human SOAT1 full-length (1-550), purified, tags removed (enzyme, UniProt P35610 1-550, looked up)
chain: MVGEEKMSLRNRLSKSRENPEEDEDQRNPAKESLETPSNGRIDIKQLIAKKIKLTAEAEELKPFFMKEVGSHFDDFVTNLIEKSASLDNGGCALTTFSVLEGEKNNHRAKDLRAPPEQGKIFIARRSLLDELLEVDHIRTIYHMFIALLILFILSTLVVDYIDEGRLVLEFSLLSYAFGKFPTVVWTWWIMFLSTFSVPYFLFQHWATGYSKSSHPLIRSLFHGFLFMIFQIGVLGFGPTYVVLAYTLPPASRFIIIFEQIRFVMKAHSFVRENVPRVLNSAKEKSSTVPIPTVNQYLYFLFAPTLIYRDSYPRNPTVRWGYVAMKFAQVFGCFFYVYYIFERLCAPLFRNIKQEPFSARVLVLCVFNSILPGVLILFLTFFAFLHCWLNAFAEMLRFGDRMFYKDWWNSTSYSNYYRTWNVVVHDWLYYYAYKDFLWFFSKRFKSAAMLAVFAVSAVVHEYALAVCLSFFYPVLFVLFMFFGMAFNFIVNDSRKKPIWNVLMWTSLFLGNGVLLCFYSQEWYARQHCPLKNPTFLDYVRPRSWTCRYVF
In the case of B2, the “stoichiometry N” value in data set [2] turned out to be 4.
